The values that follow come from PMC3279363.

The target of the experiment is T1, nitrated major birch pollen allergen Bet v 1.0101 (Betula verrucosa), P15494.
T1 chain: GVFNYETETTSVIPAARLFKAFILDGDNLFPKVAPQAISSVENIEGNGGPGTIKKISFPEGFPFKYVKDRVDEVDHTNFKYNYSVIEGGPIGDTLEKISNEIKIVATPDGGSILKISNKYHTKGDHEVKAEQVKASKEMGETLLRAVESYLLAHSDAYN
The experiment is described as follows: SEC + other: Western blot; data not shown; high performance size exclusion chromatography and Western blot analysis of Bet v 1 nitro. The note with it: remark: other sources report otherwise. In general terms: A western blot detects proteins with antibodies after separation by electrophoresis.

Where “and” joins values, the source holds several entries; their conditions need not be identical. Equal values may be shown once.

As a reminder, the stoichiometry N is the number of molecules, sites or subunits per partner or assembly.

B1: nitrated major birch pollen allergen Bet v 1.0101, P15494 2-160 (natural protein)
chain: T1 chain
modifications: here or on the partner: nitrotyrosine: 58.1% of all tyrosine groups within one protein molecule were nitrated (tetranitromethane); all tyrosine residues nitrated to some extent; nitrotyrosine: 58.1% of all tyrosine groups within one protein molecule were nitrated (tetranitromethane); all tyrosine residues nitrated to some extent
As to B1, the stoichiometry N was 2 and 3.
